Experimental data as given in US20180112202A1 (ACE BIOSCIENCES A S, published 2018).

Biological target: the molecule itself
Assay: Native PAGE, self-association; the cell continues below as 'dimer ~7 forms visible from monomer to multimer'
From the text: Native PAGE was run for information of rhGALC formations at neutral pH. […] Final product TG1106 was compared to rhGALC in-house standard StG03 and the pattern was similar. It could be that the lowest band (apparent MW 80-100 kDa) is rhGALC monomer and the second band is rhGALC dimer, followed by formations adding on more rhGALC monomers and/or dimers. Up to seven forms of rhGALC were visualized on the gel. rhGALC dimer was the most pronounced independent on load. An earlier electron microscopy study has verified that several forms exist of which the major form has a diameter of ˜20 nm, which could correspond to rhGALC dimer.

B1: recombinant human Galactocerebroside beta-Galactosidase (rhGALC), full length 80 kDa form (enzyme)
chain: YVLDDSDGLGREFDGIGAVSGGGATSRLLVNYPEPYRSQILDYLFKPNFGASLHILKVEIGGDGQTTDGTEPSHMHYALDENYFRGYEWWLMKEAKKRNPNITLIGLPWSFPGWLGKGFDWPYVNLQLTAYYVVTWIVGAKRYHDLDIDYIGIWNERSYNANYIKILRKMLNYQGLQRVKIIASDNLWESISASMLLDAELFKVVDVIGAHYPGTHSAKDAKLTGKKLWSSEDFSTLNSDMGAGCWGRILNQNYINGYMTSTIAWNLVASYYEQLPYGRCGLMTAQEPWSGHYVVESPVWVSAHTTQFTQPGWYYLKTVGHLEKGGSYVALTDGLGNLTIIIETMSHKHSKCIRPFLPYFNVSQQFATFVLKGSFSEIPELQVWYTKLGKTSERFLFKQLDSLWLLDSDGSFTLSLHEDELFTLTTLTTGRKGSYPLPPKSQPFPSTYKDDFNVDYPFFSEAPNFADQTGVFEYFTNIEDPGEHHFTLRQVLNQRPITWAADASNTISIIGDYNWTNLTIKCDVYIETPDTGGVFIAGRVNKGGILIRSARGIFFWIFANGSYRVTGDLAGWIIYALGRVEVTAKKWYTLTLTIKGHFASGMLNDKSLWTDIPVNFPKNGWAAIGTHSFEFAQFDNFLVEATR
modifications: glycosylated (about 7% carbohydrate w:w, 2-3 mol mannose-6-phosphate per mol), sites not stated
notes: Expressed in CHO cells and purified from harvest; P45803 looks like a misprint; also called Galactocerebrosidase; Galactosylceramidase
**Q.** Does B1 bind?
**A.** Result: binds
